System: K4 kissing-loop RNA reporter
Assay: apparent KD of K4 kissing-loop reporter; higher = weaker reporter binding
Settings: Eterna round: R107
Method: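 RNA-MaP round R107: designed RNA switches with theophylline, tryptophan, arginine or FMN aptamers are transcribed on-chip within common flanks. They are titrated with a labelled K4 kissing-loop RNA reporter in RNA-MaP buffer (100 mM Tris pH 7.5, 80 mM KCl, 4 mM MgCl2), without ligand or with the indicated ligand. Median apparent KD per design.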

[1] = input ligand: theophylline 20 uM
[2] = input ligand: tryptophan 2.4 mM
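Further: bound reporter read as fluorescence of individual clusters on recovered sequencing chips by microscopy, with normalized cluster intensities fitted with a binding model.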

Sequence | apparent KD of K4 kissing-loop reporter (input ligand: FMN 200 uM) | apparent KD of K4 kissing-loop reporter (input ligand: arginine 13.2 mM) | apparent KD of K4 kissing-loop reporter (input ligand: none) | apparent KD of K4 kissing-loop reporter [1] | apparent KD of K4 kissing-loop reporter [2]
GGUCCGCGGUCGGCCGCCACUGAACAAGACCAGUGAUGUUGGAUCUUCCAGUGCGUUGGCUUUAACAGGACCGGGACCGUGGAGC [Titia] | 139 nM | 132 nM | 145 nM | 140 nM | 164 nM
UUGAGUGAUGUUCAAUUAAUGUGCAACGAUACCAGCUCAUAUGCUAGCCCUUGGCAGCGUGGUAACGUAAUUUUAUCAAAUGAUA [theeternabot_exclusion_KL_Theo_A_39] | 232 nM | 199 nM | 198 nM | 205 nM | 145 nM
UUUUAUUAAUACUUCUAGUGAUGUUAGAUACGAGGACCGGUACGGCCGCCACUCGCUUAUUGGUUUAUAUAUUUUAUAUUCUUUA [JR_SSTryptoA_Sub014] | 327 nM | 362 nM | 342 nM | 369 nM | 281 nM
AAUGUAUUCCACAUGAGUGAUGUUCAUGUGCGAGGACCGGUACGGCCGCCACUCGCAGUUGUGAUCAGUUCUGAAUACAUUAAUG [KL-XTryp-A3] | 229 nM | 225 nM | 219 nM | 235 nM | 331 nM
AAAGAGUCACUCGAAGCUAUCGAAGAUAGGCGAGGACCGGUACGGCCGCCACUCGGAGUGAUGUUCCGAAGACUGUAAAAUAAAA [MatMod 12 - Jieux - Exclusion - Tryptophan A] | 208 nM | 240 nM | 206 nM | 170 nM | 295 nM
AAACAUUGGUCGGAUACCAGCUGAUCGGAAACGAUCUUGCUGGAGUGAUGUUCCAAGUAAAGCCCUUGGCAGCCGACCGAUGAAA [MAT - Same State Theophlline B - Mod of Eli - D20] | 140 nM | 50.4 nM | 63.2 nM | 135 nM | 85.8 nM
GGAUUGCCAGUGAUGUUGGCAUAAACUGAAGGAGCGCGUGAAAACGCAGGUAGGUCGCAGAACCUUGCCAACUAUUUUAUUUACC [Ex Arginine A K4 23] | 89.3 nM | 118 nM | 97.9 nM | 103 nM | 79.8 nM
AACGUUUUGAGAAGGAGCGCGUUCAGCAGUGAUGUUGCUUUACUUCAAUUUCUAGAUAAUUCGCAGGUAGGUCGCUCAAUACGUA [JR_Nu_ExcArginiB_Sub023] | 503 nM | 511 nM | 615 nM | 706 nM | 527 nM
GGAGGGAUCUCGGCCGCCACUCGUAAGAAAUGGGCCUCAGGGAUAUAGUGAUGUUAUGUAAAGAAGAGGACCGGGAGAAAGAAGG [ExTryptoB.Dd] | 222 nM | 208 nM | 247 nM | 306 nM | 209 nM
UGUAAGCGCGUAGAUACCAGCAGACGAGUGAUGUUCAAGAGAUUAAGGAAAAGAAAGUAAUGCCCUUGGCAGCUAAUCAUAAGCG [whbob_Ex_Theo_B_sa93] | 384 nM | 312 nM | 446 nM | 331 nM | 363 nM
UUAGUCUAGAGAAGGAGCGAGUGAUGUUCGCAUGCUAUGAUGAAUUCAUCAUAGUUUAAUCCUCAGGUAGGUCGCUCUAGACAUU [AK7 Exc Arginine B] | 427 nM | 339 nM | 418 nM | 355 nM | 350 nM
GGAGAGAACUGAAGGAGCGGCAAGAGAGAAGGAAAUAUAGUGAUGUUAUAUAAGAGAGAGAGCCAGGUAGGUCGCAGAGGGAGGA [ExArgB.A] | 201 nM | 153 nM | 147 nM | 164 nM | 149 nM
GGCUUAUUCUAUGAUACCAGCGUCACAUCGGGACUGCGCACGCAGCAGGCGAGUGAUGUUCGCCCUUGGCAGCAUCUCGGCGACU [theeternabot_exclusion_KL_Theo_B_26] | 373 nM | 230 nM | 249 nM | 250 nM | 232 nM
UUCCACCGAGAAGGAUAUUAUGCUGGACUUGUUUAAGUGUUAAAUAGUGAUGUUAUUUGAUCGGAAUAAGAAGGUCUCAAGUUGA [theeternabot_sameState_KL_FMN_B_44] | 155 nM | 131 nM | 145 nM | 142 nM | 119 nM
AGGGAUGAUGGAUAAAUAAACAAAGGAGAUACCAGUCAAAUAAUAGGCCCUUGGCAGCUUCAGAUCAGUGAUGUUGAAGAUAUUG [#09 K4 Theophylline A Same State] | 109 nM | 67.1 nM | 139 nM | 148 nM | 110 nM
ACGUCUUGUAAACUCGUGGUUUCGAUCGAUACCAGUAGCGAGAGUUACCCUUGGCAGCGACAUGAGUGAUGUUCAUGUACGAAGA [KL-XTheoA3] | 98.6 nM | 87.9 nM | 92.9 nM | 89 nM | 90.7 nM
UAAGAAUAAGUAGCAGUGAUGUUGCUACUACGAGGACCGGUACGGCCGCCACUCGAGUCCUCGAAACAUCACUGAACGAGGAAUA [(H,1)-(H,2)-(Trp1)-(Trp2)-(T)'-(H)'-(T)''] | 231 nM | 150 nM | 201 nM | 136 nM | 358 nM
AAUAUAGUGAUGUUAUAUAAGAAGGAGUUACGAGGACCGGUACGGCCGCCACUCGAAACGAGUGAGGAUUUGGGAGAUUGGGUCC [SSTryptA.K] | 300 nM | 366 nM | 430 nM | 384 nM | 299 nM
GAUCUGAACGAAAGUUCGGAUCAUUCCGAUACCAGUAUGGAUUCAUACCCUUGGCAGCGGGAUUCUGCUAUGGAGUGAUGUUCCA [Theophylline A K4 15] | 422 nM | 332 nM | 475 nM | 400 nM | 362 nM
AAUUAAUGUAUAGAUUAUAUACAUUAAUCAGAGGAUAUGCAUUGUUGCAGAAGGCUGAAUGCAGUGAUGUUGCAAUGGAAAUUUA [JR_SSFMNA_Sub004] | 53.8 nM | 201 nM | 181 nM | 376 nM | 120 nM
GCAAUCCCGGCGGCCGCCACUUUCAUACCAGUGAUGUUGAGUAGGAAAUGGAAUAUGCGCUGAAUAAGGACCGGGCCUAAGGAGA [theeternabot_exclusion_KL_Trp_B_47] | 270 nM | 216 nM | 251 nM | 255 nM | 210 nM

Sequence | apparent KD of K4 kissing-loop reporter (input ligand: FMN 200 uM) | apparent KD of K4 kissing-loop reporter (input ligand: arginine 13.2 mM) | apparent KD of K4 kissing-loop reporter (input ligand: none) | apparent KD of K4 kissing-loop reporter [1] | apparent KD of K4 kissing-loop reporter [2]
UAUAGACAAGUGAUGUUUGUCAUAUCCGAAGGAGCGUCUUCUAAGACAGGUAGGUCGCGGAUUAAUUUUGUUAUGAUACUAUUUA [JR_SSArginiA_Sub016] | 122 nM | 120 nM | 126 nM | 133 nM | 104 nM
UGCAUGCUUGGAGUGAUGUUCCAAGAUGAUACCAGUGCUUUUUUGCACCCUUGGCAGCGUCUGAUUGCAUGCACGUCGAAAGACG | 531 nM | 471 nM | 529 nM | 490 nM | 517 nM
CUGAGCCUGACGUAAGUCAGGCUCUGCGAGCGAGGACCGGUACGGCCGCCACUCGGUGCAGUGAUGUUGCAUGGCCGCAAGGCCG [#2 Exclusion - Tryptophan A Attempt #19 (HarryS)] | 293 nM | 246 nM | 234 nM | 254 nM | 345 nM
AGAUCUGUAACAGAUACCAGAGGACGAUGAUCGGAUAGUGAUGUUAUCUAUCAGUCGUCGCUCCCUUGGCAGCUGUUACAGAUCA [Omei KL Theo B SS B v2] | 839 nM | 450 nM | 776 nM | 552 nM | 662 nM
UGUGGAGAAUAUGAUACCAGCAGUGAGAGAGAGGAAGUAUAGUGAUGUUAUAUGAGAGAAUGCCCUUGGCAGCAUAUGUAGUAGG [SSTheophylB.G] | 209 nM | 162 nM | 207 nM | 208 nM | 188 nM
UGACUGGACUGAAGGAGCGCGAAACUCCUAGUGAUGUUAGGAUAACGAGACAAAGUCUCGACGCAGGUAGGUCGCAGUCUAGUCU | 130 nM | 92.6 nM | 116 nM | 119 nM | 120 nM
AAAUUCUUUUUUUUAUUUAAGUUUUCAGAAGGAGCGUGGUAGUACACAGGUAGGUCGCUGAAUUUUGGGCUAGUGAUGUUAGUUA [whbob_SS_Arginine_A_sa114] | 144 nM | 195 nM | 200 nM | 191 nM | 160 nM
AUCGAUAUCAGAGGAUAUGCUUAAUUGAUUUAUUAUUAUUUAUUAUGCAGUGAUGUUGCAUUUUUUGCAGAAGGCUGAUUUCGAA [JR_SSFMNB_Sub022] | 112 nM | 150 nM | 126 nM | 137 nM | 117 nM
AAUAAAAUCACGGCCGCCACUGAAUAAUUACGAAGUAGUGAUGUUACUUCACAUAUCUUAUUUAACAGGACCGGGUGAAUAUUUA [#16 K4 Tryptophan B Exclusion] | 72.3 nM | 66.3 nM | 70.9 nM | 65.1 nM | 81.8 nM
UCGAAAUGCGUCUCCUAGUUACUCCGGGAAGGAGCGUGGAUAACCGCAGGUAGGUCGCCCGGAAGCCGGACCAGUGAUGUUGGUC [Exclusion Arginine A Gf 29] | 216 nM | 179 nM | 221 nM | 186 nM | 182 nM
GGAAGAAGUGGUGUUGAUUAAGAAGCGGAAGGAGCGCCGAAGAAGGCAGGUAGGUCGCCGAAAUAUAGUGAUGUUAUAUAAAAGG [ExArg.A] | 168 nM | 170 nM | 229 nM | 168 nM | 199 nM
UCUGGUAUAUCUGAUACCAGAGUAUAGUAUCAAUUGCAUAUGGAGUGAUGUUCCAUACAACUCCCUUGGCAGCAGAUCUAUCUCU [Same State Theophylline B GF 24] | 219 nM | 249 nM | 246 nM | 286 nM | 195 nM
GGAGUUACCUGGGAUACCAGUCGGAGUCUCAGAGCUCGGAGUGAUGUUCUGGGAUGUUUCGGCCCUUGGCAGCUCUGGGACUCCU [#2 Exclusion - Theophylline B Attempt #17 (HarryS)] | 698 nM | 569 nM | 747 nM | 788 nM | 512 nM
CCAUUCUUUUACGAUACCAGUCUAAUAUAUUGAAUCAAAACCCUCGCCGAGUGAUGUUCGGACCCUUGGCAGCGUCUGCGAGAGG [xwxxtkmullin] | 629 nM | 542 nM | 602 nM | 549 nM | 498 nM
CGCAGUGAUGUUGCGAAUAUAAUAACGGAAGGAGCGCGUGAAAACGCAGGUAGGUCGCCGAUUGGUAUGAUGGAAACAUCGUACC [Arginine A K4 9] | 154 nM | 134 nM | 125 nM | 115 nM | 122 nM
AAUGUAUGGCACAUGAGUGAUGUUCAUGUCCGAGGACCGGUACGGCCGCCACUCGGUCCUGGGUUCUUAUUACUAUACAUUAAUG [KL-XTryp-A2 #analogue] | 161 nM | 133 nM | 149 nM | 169 nM | 289 nM
UGGUUAAGCAGUGAUGUUGCAAGUAAUGAUACCAGUUAAGAAGAGAACCCUUGGCAGCAUAAAGUGCGCUCUGAUGAGUGUGCUU [whbob_SS_Theo_A_w54] | 197 nM | 218 nM | 240 nM | 239 nM | 179 nM
GAUAUAGUGAUGUUAUAUACUGAUAGACAACGAGGACCGGUACGGCCGCCACUCGAGAGGGUGAAAAUGAUGAUAAAAUAAUGAU [#02 K4 Tryptophan A Exclusion] | 329 nM | 318 nM | 333 nM | 306 nM | 278 nM
UCUGUACCGGGAAGGAGCGUGAAUGAGAAUGGAUAUAGUGAUGUUAUGUAUACGAACGAAUCGCAGGUAGGUCGCCCGGAUCCCU [SSArgB.aA] | 674 nM | 380 nM | 653 nM | 474 nM | 467 nM
CGGAUGUAGUGAUGUUAUAUUAGAUGUAGACGAGGACCGGUACGGCCGCCACUCGUGAUGGCUGCUAGCGCGUUGCGAGGUUUGC [ExTryptoA.Co] | 408 nM | 558 nM | 567 nM | 633 nM | 386 nM
UUACUACCCAGUGAUGUUGGGUAGCGGCGGCGAGGACCGGUACGGCCGCCACUCGGCGCACGGGAGUGAUGUUCCUACCGUUAGG [Same state Tryptophan A GF 8] | 514 nM | 455 nM | 604 nM | 747 nM | 294 nM

From the supplement of paper PMC9170038
